Source: paper PMC5085265

Assays:
[1] = biological target: ^C38/C81/C96R1 (triple Cys mutant of the cytochrome cb562 variant RIDC1)
[2] = biological target: ^C38/C81/C96R1 (triple Cys mutant of the cytochrome cb562 variant RIDC1); assay: AUC
[3] = biological target: ^C38/C81/C96M1 (variant lacking the hydrophobic mutations) (UniProt P0ABE7)

Row | Substance | yield of the tetrameric species [1] | yield of the tetrameric species with 1.5-fold molar excess of Zn2+ [1] | stoichiometry N [2] | yield of the tetrameric species [3]
1 | ^C38/C81/C96R1 (triple Cys mutant of the cytochrome cb562 variant RIDC1) | 47% | 53% | 4 | 
2 | ^C38/C81/C96M1 (variant lacking the hydrophobic mutations) (from UniProt P0ABE7 23-128) |  |  |  | 16%
